Test results published in PMC11331095, “Structural basis for DNA recognition by a viral genome-packaging machine”.

How the values were obtained:
[1] = molecular target: HK97 small terminase Lys100 to alanine mutant (Escherichia coli bacteriophage HK97); test: SEC; mutant proteins on a Superdex S200 10/30 column in 25 mM Tris-HCl, pH 7.5, 1 M NaCl (SI Appendix, Fig. S12)
[2] = molecular target: HK97 small terminase Arg114 to alanine mutant (Escherichia coli bacteriophage HK97); test: as above
[3] = molecular target: HK97 small terminase Arg5 to alanine mutant (Escherichia coli bacteriophage HK97); test: as above
[4] = molecular target: HK97 small terminase Lys4 to alanine mutant (Escherichia coli bacteriophage HK97); test: as above
[5] = molecular target: HK97 small terminase Arg7 to alanine mutant (Escherichia coli bacteriophage HK97); test: as above
[6] = molecular target: HK97 small terminase (Escherichia coli bacteriophage HK97); test: cryo-EM structure; small terminase with 31 bp DNA (cos 7-37), 1:2 protein:DNA, 25 mM Tris-HCl pH 7.5, 200 mM NaCl, 10 mM MgCl2; complex purified on S200 10/30; 3.0 Å
[7] = molecular target: HK97 small terminase triple mutant (Lys4, Arg5 and Arg7 to alanine) (Escherichia coli bacteriophage HK97); test: SEC; mutant proteins on a Superdex S200 10/30 column in 25 mM Tris-HCl, pH 7.5, 1 M NaCl (SI Appendix, Fig. S12)
[8] = molecular target: HK97 small terminase Arg107 to alanine mutant (Escherichia coli bacteriophage HK97); test: as above
[9] = molecular target: T1, small terminase WT (Escherichia coli bacteriophage HK97, UniProt Q9MBW4 1-161); test: MST; conditions: rough upper limit of Kapp; mixed specific and nonspecific binding; 10 mM MgCl2; EMSA: 25 mM Tris-HCl pH 7.5, 200 mM NaCl, 10 mM MgCl2, RT 2-3 h, gel at 4 C (DNA 2 uM boundary mapping, 0.5 uM DNA mutants, 20 nM Alexa647 or 40 nM Cy5 DNA) …
T1 sequence: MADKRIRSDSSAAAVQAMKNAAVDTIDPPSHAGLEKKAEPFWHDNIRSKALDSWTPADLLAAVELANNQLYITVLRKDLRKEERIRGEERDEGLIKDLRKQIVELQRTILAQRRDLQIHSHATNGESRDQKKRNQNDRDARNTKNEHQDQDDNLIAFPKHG

[10] = molecular target: HK97 small terminase Arg128 to alanine mutant (Escherichia coli bacteriophage HK97); test: SEC; mutant proteins on a Superdex S200 10/30 column in 25 mM Tris-HCl, pH 7.5, 1 M NaCl (SI Appendix, Fig. S12)
[11] = molecular target: T1, small terminase WT; test: EMSA; little influence on binding; EMSA: 25 mM Tris-HCl pH 7.5, 200 mM NaCl, 10 mM MgCl2, RT 2-3 h, gel at 4 C (DNA 2 uM boundary mapping, 0.5 uM DNA mutants, 20 nM Alexa647 or 40 nM Cy5 DNA); MST: same buffer + 0.005-0.01% Tween 20, 12 nM DNA, 20 C; conditions: protein: recombinant; tags: His-SUMO tag removed; chain copies: 9
[12] = molecular target: T1, small terminase WT; test: EMSA; EMSA: 25 mM Tris-HCl pH 7.5, 200 mM NaCl, 10 mM MgCl2, RT 2-3 h, gel at 4 C (DNA 2 uM boundary mapping, 0.5 uM DNA mutants, 20 nM Alexa647 or 40 nM Cy5 DNA); MST: same buffer + 0.005-0.01% Tween 20, 12 nM DNA, 20 C; conditions: protein: recombinant; tags: His-SUMO tag removed; chain copies: 9
[13] = molecular target: T1, small terminase WT; test: cryoEM; 3.0 A; 28 of 31 bp modelled; DNA threaded through channel; EMSA: 25 mM Tris-HCl pH 7.5, 200 mM NaCl, 10 mM MgCl2, RT 2-3 h, gel at 4 C (DNA 2 uM boundary mapping, 0.5 uM DNA mutants, 20 nM Alexa647 or 40 nM Cy5 DNA); MST: same buffer + 0.005-0.01% Tween 20, 12 nM DNA, 20 C; conditions: protein: recombinant; tags: His-SUMO tag removed; chain copies: 9
[14] = molecular target: T1, small terminase WT; test: EMSA; binding abolished; up to 1 uM protein; EMSA: 25 mM Tris-HCl pH 7.5, 200 mM NaCl, 10 mM MgCl2, RT 2-3 h, gel at 4 C (DNA 2 uM boundary mapping, 0.5 uM DNA mutants, 20 nM Alexa647 or 40 nM Cy5 DNA); MST: same buffer + 0.005-0.01% Tween 20, 12 nM DNA, 20 C; conditions: protein: recombinant; tags: His-SUMO tag removed; chain copies: 9
[15] = molecular target: T1, small terminase WT; test: EMSA; up to 1 uM protein; EMSA: 25 mM Tris-HCl pH 7.5, 200 mM NaCl, 10 mM MgCl2, RT 2-3 h, gel at 4 C (DNA 2 uM boundary mapping, 0.5 uM DNA mutants, 20 nM Alexa647 or 40 nM Cy5 DNA); MST: same buffer + 0.005-0.01% Tween 20, 12 nM DNA, 20 C; conditions: protein: recombinant; tags: His-SUMO tag removed; chain copies: 9

HK97 small terminase Lys100 to alanine mutant (natural protein)
stoichiometry N [1]: 9

HK97 small terminase Arg114 to alanine mutant (natural protein)
stoichiometry N [2]: 9

HK97 small terminase Arg5 to alanine mutant (natural protein)
stoichiometry N [3]: 9

HK97 small terminase Lys4 to alanine mutant (natural protein)
stoichiometry N [4]: 9

HK97 small terminase Arg7 to alanine mutant (natural protein)
stoichiometry N [5]: 9

HK97 small terminase
stoichiometry N [6]: 9

HK97 small terminase triple mutant (Lys4, Arg5 and Arg7 to alanine) (natural protein)
stoichiometry N [7]: 9

HK97 small terminase Arg107 to alanine mutant (natural protein)
stoichiometry N [8]: 9

cos -20-80 (100 bp)
Kd [9]: < 100 nM

HK97 small terminase Arg128 to alanine mutant (natural protein)
stoichiometry N [10]: 9

B1: positions 24-29 A:T swapped (dsDNA)
DNA 1: ATTTAACGCTAACCCGAAAAAAATAGTTTTA
DNA 2: TAAAACTATTTTTTTCGGGTTAGCGTTAAAT
binding result [11]: binds

B2: 21 bp cos oligo (dsDNA)
DNA 1: ACGCTAACCCGATTTTTTTAG
DNA 2: CTAAAAAAATCGGGTTAGCGT
binding result [12]: binds

B3: cos 7-37 (31 bp) (dsDNA)
DNA 1: ATTTAACGCTAACCCGATTTTTTTAGTTTTA
DNA 2: TAAAACTAAAAAAATCGGGTTAGCGTTAAAT
binding result [13]: binds

B4: positions 26-27 G:C (dsDNA)
DNA 1: ATTTAACGCTAACCCGATTCCTTTAGTTTTA
DNA 2: TAAAACTAAAGGAATCGGGTTAGCGTTAAAT
binding result [14]: no binding

B5: position 21 C:G to T:A (dsDNA)
DNA 1: ATTTAACGCTAACCTGATTTTTTTAGTTTTA
DNA 2: TAAAACTAAAAAAATCAGGTTAGCGTTAAAT
binding result [15]: no binding

B6: 25 bp cos oligo (dsDNA)
DNA 1: TAACGCTAACCCGATTTTTTTAGTT
DNA 2: AACTAAAAAAATCGGGTTAGCGTTA
binding result [12]: binds
